# Experiment: soluble on expression in E. coli; label from the status in PepcDB or PDB records
row,Sequence,soluble on expression in E. coli
1,MEYDAFITNQLRGAQNQSSGLTTRYEQMSKIDNLLADKSSSLSGSLQSFFTSLQTLVSNAEDPAARQALIGKAEGLVNQFKTTDQYLRDQDKQVNIAIGSSVAQINNYAKQIANLNDQISRMTGVGAGASPNDLLDQRDQLVSELNKIVGVEVSVQDGGTYNLTMANGYTLVQGSTARQLAAVPSSADPTRTTVAYVDEAAGNIEIPEKLLNTGSLGGLLTFRSQDLDQTRNTLGQLALAFADAFNAQHTKGYDADGNKGKDFFSIGSPVVYSNSNNADKTVSLTAKVVDSTKVQATDYKIVFDGTDWQVTRTADNTTFTATKDADGKLEIDGLKVTVGTGAQKNDSFLLKPVSNAIVDMNVKVTNEAEIAMASESKLDPDVDTGDSDNRNGQALLDLQNSNVVGGNKTFNDAYATLVSDVGNKTSTLKTSSTTQANVVKQLYKQQQSVSGVNLDEEYGNLQR,soluble
2,MGSDKIHHHHHHMTDPRTTAFNGRVAHASLKGEIEAERYSEGRWMMVQQPIANILDKPRGARTSQLVFGERFLVLDTEDGFSFGQAERDGYVGYILSGALTGAEPATHWVISPATHLYPKAELKVPPDVCLYFGSQVKVTGEKDDFKRIHTGHFMPSQHLMPIKARFRDSVGIADLFLGTPYLWGGTSRWGIDCSGLVQACLLACGVECPRDTDQQEAALGEEIPSDEALKRGDLIFWKGHVGMMASDRMLLHANAHHMSTAYEPLKDAAARIEAKEYGPITSRKRIAMG,not soluble
3,MGSDKIHHHHHHMKIGIVISGGDVSGMNNFIFQIARQANADITLFNGGIPGLLEKSHQDMAWRDLVDYSITAVPIITSGRTSRKLQRSEYESIAKKLKSLRIDVLIMAGGDGSLQFLNTLSEFEINCFGVGMTIDNDVYGSDYTIGFSTACEQIIKEVSRLRNTGRALPGRVFMVEILGGYCGELTLQSAIKCNADIALIPEAQMPLAVLAERITRKLSAQNSVVILCSEGYTKEYSPGFQGAIDTMIKQLEPQIGVRIRKTIVGYGLRSGDPTCEEIYQGTIMASEVVRCIQSGMKNKAIIINSSNKPIPIDLVSMKKRLVDTEGHHYKLAKQLNII,not soluble
4,MNLKPHCLALALACAGLAGPLPALAATPAAAQSAPVTVLASLPVTHALAERLLRDTEVKLQRVAPANLPASRQASFFAGRGAGGLAKAAGQADAVIDLRSIWSDDPLYPLARRSNIRIVEIDAARPVDGALPGIALRPGSDLHAYPWLNPTNLGRMADVLASDLERLAPGAAATIQANLATLKKQLLEATASNETRLAKADNLSVISLSERLGYLLAGLNLDPLDVEIQADDGWTETNIQAFAEELKSEDIALVLHHRQPPKPLADAIAASGARLIVVDTEAADPVAGLESDMKAIVEGLLAGKG,not soluble
5,MKLIILDRDGVVNQDSDAFVKSPDEWIALPGSLQAIARLTQADWTVVLATNQSGLARGLFDTATLNAIHDKMHRALAQMGGVVDAIFMCPHGPDDGCACRKPLPGMYRDIARRYDVDLAGVPAVGDSLRDLQAAAQAGCAPWLVQTGNGRKTLAQGGLPEGTRVCEDLAAVAEQLLQEA,soluble
6,MHVNGKVALVTGAAQGIGRAFAEALLLKGAKVALVDWNLEAGVQCKAALDEQFEPQKTLFIQCDVADQQQLRDTFRKVVDHFGRLDILVNNAGVNNEKNWEKTLQINLVSVISGTYLGLDYMSKQNGGEGGIIINMSSLAGLMPVAQQPVYCASKHGIVGFTRSAALAANLMNSGVRLNAICPGFVNTAILESIEKEENMGQYIEYKDHIKDMIKYYGILDPPLIANGLITLIEDDALNGAIMKITTSKGIHFQDYDTTPFQAKTQ,not soluble
7,MNEPSACSGPPVKSKSSKNEPFYTLKALLPPYSEIQGNHDLLMSYELGPVEGGFSGSRRVKEKISSFLPHIIGEFHLDATKEASSLRALIEKPPIHKEISNLTSSSMQGFKLSAGPVDERYRHLFERRKEEPNLAYSEKLNLIRVRQQYDAYGFDDDETEKGFPKKHKKKKKDKKRKKEKEELGDAEKRKRAADEPMEF,not soluble
8,MGSSHHHHHHSSGLVPRGSKITVNPESKAVLAGQFVKLCCRATGHPFVQYQWFKMNKEIPNGNTSELIFNAVHVKDAGFYVCRVNNNFTFEFSQWSQLDVCDIPESFQRSVDGVSESKLQICVEPTSQKLMPGSTLVLQCVAVGSPIPHYQWFKNELPLTHETKKLYMVPYVDLEHQGTYWCHVYNDRDSQDSKKVEIIIDELNNLGHPDNKEQTTDQ,soluble
9,MADEVIEYKFICPNITIYRESLQHLYTSFAKGLKCVWKTRNTSGQTFFSWEFDLNELKNQGIDGLMGRISVNSDSIDLLNVQIDLKNSTEIIERVVHLYHNNYQYGYNYIPSATFEYSFVPYYAQAEGSLYDQMFLPSHENDAILVIGKKKLHVCKAFLSYHSSFFRAIFSSTFKEGQMSEIPIKDVTYKDFALMLSTIYPDAVFPNDRTAEKLLEMGDRFIIQSVINHVEYHLLHNTKIGNEKLMWMADRYGMSKLLVKSIRQMDSIEKAKALKSSPDYAKLSKEAKEKILDRLMALI,not soluble
10,MSLNTKLLILDDDIDILQMLKTVFIGEEMDIILESESEQALRFITTERPNVAIVDINLPRKSGLQVLQEAKKIDPGLSVIMTTGNKTTQNAIEAMKYGAYDYVTKPFDMNKLKSAVHKALECNLLSRKVRYTKDTKQLSEDEGHHHHHH,not soluble
11,MSLDLETDVVAGTAERKGSAEGKVEIEDRHVTKVSLPVQVVTGDENTLCYYTAIFDGHDGSSCAQYATVNLHKNLISLYRQIYSTVQRRKFLSVGLEALVKATAKSFFMTDHNFLDSARKSGVEQDAGSTACVVLLFGPDDDGQLKLLTAHAGDTRAVLCRDDRALRLTEDHRPNHKLEQRRVQQNGGEVMNIEGVWRVIFVDRKTNRLFGLATSRALGDRRMKVPKKLVTCQPTLHVYAINFETDLFLVLASDGIWDVLSDEEVVAIVSEHLDKPPQEAARFVIDEAVKRGSEDDKTCTVLFFKWRRDRFPSEGHHHHHH,soluble
12,MSNNKQAWTGQLDLSVFNNGKKSVARDVFFEKALKVMRPVYLNQSDIPTFYIVNVGGGYLDGDRYTMNFNIDSDAKVILTSQGATKIYKTLNDHVEQYQTFNIKNNGYAEYVGDPIIAFENAKFYQHNVFNLESTASLFYTDILTPGYSKSDKRFSYTYMHLLNEIYVDDALVTFDNMLLDPQKQNVDGLGYMEDYTHLGSCYFIHPSVNQKFIEQVYEEIKHFQHKYDCRFGITHLPTHGFSLRILSNKTQVIESIITAVQCYVVKQIFDRDVDFLRKYLEHHHHHH,not soluble
13,MLHFIDSSESEDDLDELPRHLPPVIRRLAPLRHATSQYNLRSTGSTSSDSSTASENDKCSDFSSLKSRRASCIELNKEDEFKVMAADKLLMAMENMKHATSSQAIRWRTTSTESLPGIIKSNRRHSKGPLELIQGLMAKKAAVGRPAKFKNLGVVGPPTLISSTVSLHEISGFVRRDRFWGAETESLFSQFEV,not soluble
14,MADEPLHYGEDYHFIHATSAASGLGVSVLPDLYCHTIQIVNICLVGRPDDHAFVLVDAGMPGSADDIVSVVEDRFGSGSRPQAIVLTHGHFDHVGAIVELVKHWNVPVYAHPAELPYLTGKASYPEPDASVEGGFIAKISPFFPNEPIQLGNRVQPLPADGTVPHLPEFRWIHTPGHTPGHISLFRPRDAALIAGDAFVTVRQDSLYKVLTQQIEISGPPRYYTIDWRAARESVRKLAALFPSVAITGHGAPVAGKELREGLTKLARDFDRIATPDYGKYVH,soluble
15,GSGAVTAGAAPRILKHQVVRAELDRMLDGMRIGDPFPAEREIAEQFEVARETVRQALRELLIDGRVERRGRTTVVARPKIRQPLGMGSYTEAAKAQGLSAGRILVAWSDLTADEVLAGVLGVDVGAPVLQLERVLTTDGVRVGLETTKLPAQRYPGLRETFDHEASLYAEIRSRGIAFTRTVDTIDTALPDAREAALLGADARTPMFLLNRVSYDQDDVAIEQRRSLYRGDRMTFTAVMHAKNSAIVS,soluble
16,MGSDKIHHHHHHMAPLRIRYQTHEFGVLDIHIRTLRDNQEFEDINGEAEKLGISSATWPLFGIVWPSEQVLSHHMLDYPIEGKRILEVGCGIGLASLVLNHRLADITATDYHPETGSFLSQNVALNKGRTIPFVRTGWADETSKLGLFDLIIGSDLLYEQEHADLLSQFIEQHAKPICDVILVDPGRGNHAKFSKRMVTLGYEHSQHKPIHTEFLLAPFGGQILSYSRTKS,not soluble
17,MSLLPKELLDVRRAKGRIFPKFADERDYELAEKVIEIFKKGLGKKYGNLMKQARKLENAKNFKKVRGFIRVLENHCIEKSCAFDVDSELEPRKVRMLLFEHGFVTSKKERDRVLEYVARYFSTTPETVERAMYADREEELILTKFRPLTPDNLIKLYNLSLLQTTLFNALRLTFWASDRHKEIFRSIKRLGLMYELYEDSGRLMVEVTGAATLLKMTRKYGVSFAKLIPWILRAKNWFIRAEISDFDRLYIMEIDDRIRDLFPDVEERLSYDSTLEEEFARKMQMLGYEVEREPDVVKAGKYAFIPDFAVNLGDKKVYIEIAGFWTDEYLRKKAEKIKSSSIPLILIAREDFGDGGANVKDVILFSRKIPYGEVIKALKRYKPEKKVEGDVVELENFAEVPSEYVIAGKYAVRREIFEEIKREIEVSNPSTLEDIKAILKKYGLGESAIRAFGYRVRWIGLGEAVIERTDEGHHHHHH,not soluble
18,MRQIVPKVVVVGAGMGGLASAIRLARAGCEVTLLEAREAPGGRMRTLPSVAGPVDAGPTVLTLREVFDDIFEVCGQKLDHHLTLLPQPLLARHWWLDGSTLDLTTDLEANVEAVAAFAGAREARAFRRFHDLSARLYDAFDRPMMRAARPDLRAIATGALKAPRTWPALLPGMTLDRLLRLFFRDRRLRQLFGRYATYVGGTPYGAPGVLALIWAAEARGVWAIEGGMHRLALALARLADDQGVRLRYGAPVARILRQGGRATGVQLADGRTLPADHIVFNGDPAALLAGCLGDGPQDAVPEDRIHPRSLSAWVWSYAARASGPPLVHHNVFFADDPRREFGPIAAGQMPEDATLYICAEDRSGGQLPDGPERFEIIMNGPPGRPAKPEDFAQCRSRTFDRLRQFGLTFDPVPGETSLTAPSGFASLFPASQGSIYGLSPHGALASLKRPLARTALPGLWLAGGGAHPGAGVPMAALSGRHAAEAILADLASRSRLEHHHHHH,not soluble
19,MGSSHHHHHHSSGLVIRGSHMRIALMQHTARPLDPQHNLDLIDDAAARASEQGAQLLLTPELFGFGYVPSQICAQVSAEQVDAARSRLRGIARDRGIALVWSLPGPEGPEQRGITAELADEHGEVLASYQKVQLYGPEEKAAFVPGEQPPPVLSWGGRQLSLLVCYDVEFPEMVRAAAARGAQLVLVPTALAGDETSVPGILLPARAVENGITLAYANHCGPEGGLVFDGGSVVVGPAGQPLGELGVEPGLLVVDLPDQSQDAGSDSADYLQDRRAELHRNWL,soluble
20,MGSDKIHHHHHHMSNNIFTVYGEVPELVEKKTKEIVNDYLGQKIDDFNYVKYNLYESDLTPIIEETLTMPFFSNKKAIVVKNSYVFTGEKFSKDLNHNSDELIKFLEKYDGENLIIFEVYQPKLDERKKLTKTLKKNAQLKKIEQMSEKELKHWIKNTLNNNYKDIKQDALELFIELTGVNYNIVSQELEKLILFIGERPIINKDDIDLIINRSLEQNVFLLTEYIQKGNKNKAIQLVNDLIIMKEEPIKLLALITSNYRLYYQCKILSQKGYSGQQIAKTVNAHPYRVKLALNQSRHYKLESLFNIINACAETDYKLKSSYMDKQLILELFILSL,not soluble
21,MGSDKIHHHHHHMKNVLILSSSPRRGGNSDTLCDEFMQGAIESGHRVEKVFLRDKTIHPCTGCGVCSQYKKPCPQKDDAAEIIGKMLAADVIVMATPVYFYAMSAQMKTLIDRCCGPYTEMKNKEFYFIATAAEEDNGIMDRIVANFMGFLDCLENPTVKGTLFCGGVWHVGEIEGNPTLRQAYEQGKRV,not soluble
